Data as given in patent US20040082080A1, “Method of measuring molecular interactions” (priority 2002, published 2004).

Target: T1, low affinity nerve growth factor receptor, gp75 (Homo sapiens, UniProt P08138)
T1 construct: were expressed endogenously in A875 cells; endogenous in cells; host or cells: A875 cells
Experiment: FCS autocorrelation on A875 cells, gp75 receptor stoichiometry
Format: cell-based
Details: 180 nM NGF for 5 minutes
Text: Macromolecular stoichiometry, i.e., the quantitative proportions with which two macromolecules interact, of a target can be determined from autocorrelation data. Starting with Equation 4, macromolecular stoichiometry can be calculated if it is assumed that intersystem crossing and particle diffusion are independent sources of fluctuation. The first occurs in the microsecond (μs) time domain and results from intersystem crossing of fluorophores between the singlet and triplet states. The second occurs in the millisecond (ms) time domain, and results from the diffusion of particles into and out of the confocal volume. […]
where F1N′P defines the total number of fast diffusing particles, i.e., uncomplexed fluorescently tagged probes, and F2N′P defines the total number of slow diffusing complexes formed. […] S is obtained with Equation 8 for each target concentration using the parameter values obtained by fitting to Equation 6 and the calibration factor determined with Equation 7
The samples were analyzed using a fluorescence correlation spectroscopy instrument configured to distinct fluorescence emission at different wavelengths and a data processing program capable of autocorrelation, crosscorrelation, Fourier transform and Moment analyses. […]

T1 sequence (P08138 29-427): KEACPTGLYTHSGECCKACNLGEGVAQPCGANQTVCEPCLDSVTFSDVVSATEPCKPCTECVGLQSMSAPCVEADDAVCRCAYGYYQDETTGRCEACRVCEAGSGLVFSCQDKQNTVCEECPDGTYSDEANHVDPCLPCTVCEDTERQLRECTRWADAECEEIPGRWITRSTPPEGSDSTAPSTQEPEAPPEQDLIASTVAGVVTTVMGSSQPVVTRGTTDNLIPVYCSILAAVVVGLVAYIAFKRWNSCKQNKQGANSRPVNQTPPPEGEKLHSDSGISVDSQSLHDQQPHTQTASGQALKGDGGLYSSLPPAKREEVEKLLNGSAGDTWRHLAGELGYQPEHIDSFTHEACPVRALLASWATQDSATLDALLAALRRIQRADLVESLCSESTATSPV

nerve growth factor [NGF]
stoichiometry calculation for gp75 (Equation 8): 0.94
